# In US20200055913A1 (University of California, published 2020):
# Experiments:
# [1] = target: his-maltose binding protein (MBP) (UniProt P0AEX9 27-396 = MBP); assay: pull-down on nickel-NTA agarose beads, anti-hRetn Western blot
# Protocol: (§1) Given that there are no publicly available CAP1 deficient mice, a direct protein-protein interaction of hRetn to TLR4 or CAP1 was investigated as an alternative to cell binding assays. A pull-down assay was performed utilizing recombinant hRetn with histidine (his)-tagged human TLR4, his-human CAP1 or his-maltose binding protein (MBP) as a negative control (FIG. 4G). In the pull-down elution, Western blot using anti-his antibody confirmed that his-MBP, his-TLR4 and his-CAP1 are all pulled down by the nickel-NTA agarose beads. In addition, when blotting the elution fraction with anti-hRetn antibody, hRetn was only present in the elution with his-TLR4, not his-CAP1 or his-MBP. To ensure that this interaction was not due to low-level LPS contamination, this pull-down assay was also performed with mammalian cell-derived hRetn. Similar to E. coli-derived hRetn, mammalian-derived hRetn is only detected when pulled down with his-TLR4, not his-CAP1 or his-MBP.
# (§2) Pull-down Assay. […] His-MBP, His-TLR4 and His-CAP1 were detected by anti-His antibody (Abcam), and hRetn was detected by anti-hRetn antibody (donated by Mitchell Lazar) by Western Blot. […]
# [2] = target: T1, his-human CAP1 (cyclic adenylate associated protein 1) (human, UniProt Q01518 1-475, limits assumed); assay: as above
# T1 construct: Proposed receptor of hRetn, tested in the pull-down; also called his-CAP1; His-CAP1; not shown: His tag
# T1 sequence (Q01518 whole entry): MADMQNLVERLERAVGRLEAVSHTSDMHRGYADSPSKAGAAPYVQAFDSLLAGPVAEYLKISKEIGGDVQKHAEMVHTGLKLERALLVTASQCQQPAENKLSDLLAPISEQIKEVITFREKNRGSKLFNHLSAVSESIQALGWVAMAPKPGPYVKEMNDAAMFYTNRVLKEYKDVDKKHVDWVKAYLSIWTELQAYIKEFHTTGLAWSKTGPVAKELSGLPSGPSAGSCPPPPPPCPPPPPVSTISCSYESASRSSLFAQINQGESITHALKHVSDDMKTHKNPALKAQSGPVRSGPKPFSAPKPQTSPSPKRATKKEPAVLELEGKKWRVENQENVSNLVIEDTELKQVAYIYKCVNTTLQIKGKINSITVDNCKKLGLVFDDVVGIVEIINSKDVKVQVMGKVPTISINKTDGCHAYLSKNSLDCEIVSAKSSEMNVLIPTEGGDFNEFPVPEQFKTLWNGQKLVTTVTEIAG
# Protocol: as §1, §2
# [3] = target: T2, human TLR4 on human PBMC (CD14+CD11b+ monocytes) (human, UniProt O00206 24-839); assay: competitive hRetn/LPS binding assay on human PBMC, flow cytometry
# T2 construct: whole, on cells
# T2 sequence (O00206 24-839): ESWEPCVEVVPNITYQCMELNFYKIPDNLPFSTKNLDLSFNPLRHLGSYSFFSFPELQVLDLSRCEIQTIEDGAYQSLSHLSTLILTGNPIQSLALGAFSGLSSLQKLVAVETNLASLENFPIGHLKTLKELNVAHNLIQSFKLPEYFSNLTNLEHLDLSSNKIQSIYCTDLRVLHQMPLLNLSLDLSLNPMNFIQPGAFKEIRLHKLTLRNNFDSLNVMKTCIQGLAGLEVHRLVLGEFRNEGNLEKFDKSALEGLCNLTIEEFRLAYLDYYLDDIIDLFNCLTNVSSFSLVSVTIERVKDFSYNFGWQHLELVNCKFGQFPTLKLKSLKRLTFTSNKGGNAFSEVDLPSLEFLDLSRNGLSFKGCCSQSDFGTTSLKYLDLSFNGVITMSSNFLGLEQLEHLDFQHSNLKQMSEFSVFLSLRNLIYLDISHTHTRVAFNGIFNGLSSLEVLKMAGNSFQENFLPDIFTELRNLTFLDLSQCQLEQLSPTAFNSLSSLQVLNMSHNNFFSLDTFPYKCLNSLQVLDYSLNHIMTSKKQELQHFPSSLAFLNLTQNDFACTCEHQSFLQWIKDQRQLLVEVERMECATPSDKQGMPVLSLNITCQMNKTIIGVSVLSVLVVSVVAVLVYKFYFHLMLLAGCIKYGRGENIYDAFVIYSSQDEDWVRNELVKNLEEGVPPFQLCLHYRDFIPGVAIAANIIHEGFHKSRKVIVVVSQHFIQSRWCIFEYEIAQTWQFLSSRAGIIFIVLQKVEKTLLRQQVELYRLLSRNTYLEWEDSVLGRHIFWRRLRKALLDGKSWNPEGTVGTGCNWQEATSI
# Protocol: With reference to FIG. 5J, the functional ability of the hRetn N-peptide to block LPS binding and function was tested. The binding experiments were performed on ice to rule out effects of LPS-induced TLR4 endocytosis, which would have added complexity for interpretation of the data. Pre-incubation of human PBMC with the hRetn N-peptide or full-length hRetn inhibited LPS binding to CD14+CD11 b+ monocytes. […] An additional formulation of human resistin fused to the humanFc Ig fragment was also effective at inhibiting proinflammatory cytokines and promoting IL-10 expression in primary macrophage cultures (FIG. 7C).
# Human PBMCs. Human buffy coat was purchased from Zen-bio. Buffy coat was overlaid on top of Histopaque-1077 and spun at 700g at 25° C. with no brake and PBMCs were recovered from the interphase. PBMCs were plated in 96-well plates and stimulated with mammalian-derived human resistin (1 μg/mL, LifeSpan Biosciences) or hRetn N-peptide (1 μg/mL). After 24 hours, ultrapure LPS (100 ng/mL, Invivogen) was added and supernatants recovered for ELISA at 24 hours. Where indicated, cells were incubated for 4 hours with STAT3 (5, 15-DPP, 50 μM) or TBK1 (BX-795, 1 μM) inhibitors prior to hRetn treatment. For the hRetn competitive binding assay, 1×10^6 cells were incubated with recombinant hRetn (0.5 μg), washed in PBS then incubated with 0.5 μg LPS-biotin (incubations were 30 minutes on ice). […]
Binder,binding result [1],binding result [2],binding result [3]
"recombinant human resistin (hRetn), E. coli-derived (Peprotech) (ligand, Bought protein (Peprotech), made in bacteria; also called recombinant hResistin; E. coli-derived hRetn) SSKTLCSMEEAINERIQEVAGSLIFRAISSIGLECQSVTSRGDLATCPRGFAVTGCTCGSACGSWDVRAETTCHCQCAGMDWTGARCCRVQP",no binding,no binding,
"mammalian cell-derived human resistin (hRetn), 293T cell-derived (LifeSpan Biosciences) (ligand, Bought protein (LifeSpan Biosciences); also called mammalian-derived hRetn; 293T derived hRetn) KTLCSMEEAINERIQEVAGSLIFRAISSIGLECQSVTSRGDLATCPRGFAVTGCTCGSACGSWDVRAETTCHCQCAGMDWTGARCCRVQP",,,binds
